# From US20040191812, “Target-dependent transcription using deletion mutants of N4 RNA polymerase” (published 2004)
# Where a chain is given by its changes, count along the chain named.
# T1: N4 mini-vRNAP (His-tagged) (Bacteriophage N4, UniProt Q859P9 SEQ:34-1143)
# T1 chain: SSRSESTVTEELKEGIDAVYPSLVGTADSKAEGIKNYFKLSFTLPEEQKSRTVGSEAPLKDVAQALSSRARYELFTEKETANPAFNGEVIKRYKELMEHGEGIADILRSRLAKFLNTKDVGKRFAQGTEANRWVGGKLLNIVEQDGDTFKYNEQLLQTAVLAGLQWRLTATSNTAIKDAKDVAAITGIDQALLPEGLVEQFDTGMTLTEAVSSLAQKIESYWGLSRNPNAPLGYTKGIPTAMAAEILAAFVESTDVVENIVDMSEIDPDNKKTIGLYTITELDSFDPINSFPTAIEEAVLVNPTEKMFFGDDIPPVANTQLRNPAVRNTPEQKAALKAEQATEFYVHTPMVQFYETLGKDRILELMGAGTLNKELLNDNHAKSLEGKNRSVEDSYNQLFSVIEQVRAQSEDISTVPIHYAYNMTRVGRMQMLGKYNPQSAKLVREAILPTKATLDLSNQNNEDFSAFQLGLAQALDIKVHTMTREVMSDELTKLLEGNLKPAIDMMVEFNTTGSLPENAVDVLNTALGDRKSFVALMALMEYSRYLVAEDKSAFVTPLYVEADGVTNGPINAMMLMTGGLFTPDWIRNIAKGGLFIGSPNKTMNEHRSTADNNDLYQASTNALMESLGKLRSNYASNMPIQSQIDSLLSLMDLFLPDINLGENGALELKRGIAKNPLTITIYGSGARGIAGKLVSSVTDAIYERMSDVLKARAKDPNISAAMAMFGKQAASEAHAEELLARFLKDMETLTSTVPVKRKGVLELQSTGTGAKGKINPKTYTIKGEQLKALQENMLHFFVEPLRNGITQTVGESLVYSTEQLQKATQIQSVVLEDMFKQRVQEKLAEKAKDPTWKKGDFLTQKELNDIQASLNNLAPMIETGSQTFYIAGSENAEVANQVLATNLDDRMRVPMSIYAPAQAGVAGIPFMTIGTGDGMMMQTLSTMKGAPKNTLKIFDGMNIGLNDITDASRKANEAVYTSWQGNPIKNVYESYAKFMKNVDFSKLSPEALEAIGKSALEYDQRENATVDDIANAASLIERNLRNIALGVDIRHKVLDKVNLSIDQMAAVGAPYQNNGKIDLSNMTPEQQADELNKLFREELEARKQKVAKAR
# T2: N4 mini-vRNAP Y678F (Bacteriophage N4, UniProt Q859P9 SEQ:34-1143)
# T2 chain: T1 chain with Y682F
# Tests used:
# [1] = target: N4 mini-vRNAP K670A K670A (mini-vRNAP numbering) (Bacteriophage N4) (UniProt Q859P9); assay: filter; settings: wild-type affinity; method inferred
# [2] = target: T1, N4 mini-vRNAP (His-tagged); assay: filter; wild-type affinity; UV crosslinks; settings: tags: N-terminal hexahistidine (pBAD); label: 32P end-label; hairpin
# From the text: To study the sequence determinants of promoter binding, 20 base-long promoter oligonucleotides, containing the wild-type vRNAP promoter P2 sequence and substituted at every position with a single 5-Iodo-dU, were used. Whenever substitutions were made in the stem, the corresponding pairing base was changed to A. These oligonucleotides were ³²P end-labeled and used to determine the enzyme's affinity for promoter DNAs by a filter binding assay and the ability to crosslink to mini-vRNAP upon UV irradiation at 320 nm.
# N4 mini-vRNAP Y678F = target: T2, N4 mini-vRNAP Y678F; assay: UV crosslinking as well as wild type; settings: tags: N-terminal hexahistidine (pBAD); label: 32P end-label; hairpin
Molecule,binding signal (fold of wild type) [1],binding result [2],binding result (N4 mini-vRNAP Y678F)
TCCAAAAGAAGCGGAGCTTC [P2 wild-type 20-mer promoter oligo],1,,
"TTCAAAAGAAGCGGAGCTTC (ssDNA, 5-iodo-dU at +2 [2 (5-iodo-dU, promoter position +2)]) [P2 5-IdU at +2]",,binds,
"TCTAAAAGAAGCGGAGCTTC (ssDNA, 5-iodo-dU at +1 [3 (5-iodo-dU, promoter position +1)]) [P2 5-IdU at +1]",,binds,
"TCCAAAAGAAGCGGAGCTTC (ssDNA, 5-iodo-dU at +3 [1 (5-iodo-dU, promoter position +3)]) [P2 5-IdU at +3]",,binds,binds
"TCCAAAAGAAGCGTAGCTTC (ssDNA, 5-iodo-dU at -11 [14 (5-iodo-dU, promoter position -11)]) [P2 5-IdU at -11]",,,binds
